According to patent US10450368 (DUKE UNIVERSITY, dated 2019):

Columns and labels:
Histones [1] = biological target: T1, Histones; assay: AtheNA, Ab 50 ug/ml
T1 construct: Mixture of proteins

SSB [2] = biological target: T2, SSB (UniProt P05455 1-408); assay: AtheNA, Ab 50 ug/ml
T2 sequence: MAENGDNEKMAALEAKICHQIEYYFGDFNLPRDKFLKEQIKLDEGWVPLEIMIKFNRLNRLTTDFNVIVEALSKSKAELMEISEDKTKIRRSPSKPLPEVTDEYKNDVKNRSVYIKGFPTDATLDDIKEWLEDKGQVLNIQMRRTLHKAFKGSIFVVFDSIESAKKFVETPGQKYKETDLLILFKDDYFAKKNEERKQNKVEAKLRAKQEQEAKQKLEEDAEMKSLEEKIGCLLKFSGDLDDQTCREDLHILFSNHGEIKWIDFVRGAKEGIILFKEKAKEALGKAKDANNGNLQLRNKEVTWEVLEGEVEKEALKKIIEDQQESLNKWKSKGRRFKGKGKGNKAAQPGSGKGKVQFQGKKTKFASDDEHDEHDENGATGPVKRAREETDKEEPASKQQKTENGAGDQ

RNP (ribonucleoprotein) [3] = biological target: T3, RNP (ribonucleoprotein); assay: AtheNA, Ab 50 ug/ml
T3 construct: Protein-RNA complex

Scl-70 [4] = biological target: T4, Scl-70 (UniProt P11387 1-765); assay: AtheNA, Ab 50 ug/ml
T4 sequence: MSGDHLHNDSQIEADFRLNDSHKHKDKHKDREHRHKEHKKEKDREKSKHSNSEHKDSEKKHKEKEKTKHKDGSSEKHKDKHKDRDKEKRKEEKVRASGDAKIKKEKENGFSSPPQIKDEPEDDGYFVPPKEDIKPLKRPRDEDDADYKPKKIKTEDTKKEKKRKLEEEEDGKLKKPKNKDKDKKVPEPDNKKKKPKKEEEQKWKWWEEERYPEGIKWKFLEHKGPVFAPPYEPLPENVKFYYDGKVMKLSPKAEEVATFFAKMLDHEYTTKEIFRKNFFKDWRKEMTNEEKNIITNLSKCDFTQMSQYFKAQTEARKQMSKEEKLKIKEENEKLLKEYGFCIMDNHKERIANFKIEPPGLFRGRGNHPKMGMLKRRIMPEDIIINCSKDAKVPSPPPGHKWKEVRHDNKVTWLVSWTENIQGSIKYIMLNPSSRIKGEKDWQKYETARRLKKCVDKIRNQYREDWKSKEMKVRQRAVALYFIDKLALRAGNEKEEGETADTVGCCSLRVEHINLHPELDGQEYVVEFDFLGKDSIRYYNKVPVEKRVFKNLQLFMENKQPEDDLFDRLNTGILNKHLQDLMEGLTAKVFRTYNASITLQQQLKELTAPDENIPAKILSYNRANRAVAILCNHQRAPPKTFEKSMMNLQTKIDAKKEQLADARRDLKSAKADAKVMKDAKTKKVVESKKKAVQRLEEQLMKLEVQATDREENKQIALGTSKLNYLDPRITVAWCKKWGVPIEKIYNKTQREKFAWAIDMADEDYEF

SSA [5] = biological target: T5, SSA; assay: AtheNA, Ab 50 ug/ml
T5 construct: also called SSA (Ro)

Jo-1 = biological target: T6, Jo-1 (UniProt P12081 1-509); assay: AtheNA, Ab 50 ug/ml
T6 sequence: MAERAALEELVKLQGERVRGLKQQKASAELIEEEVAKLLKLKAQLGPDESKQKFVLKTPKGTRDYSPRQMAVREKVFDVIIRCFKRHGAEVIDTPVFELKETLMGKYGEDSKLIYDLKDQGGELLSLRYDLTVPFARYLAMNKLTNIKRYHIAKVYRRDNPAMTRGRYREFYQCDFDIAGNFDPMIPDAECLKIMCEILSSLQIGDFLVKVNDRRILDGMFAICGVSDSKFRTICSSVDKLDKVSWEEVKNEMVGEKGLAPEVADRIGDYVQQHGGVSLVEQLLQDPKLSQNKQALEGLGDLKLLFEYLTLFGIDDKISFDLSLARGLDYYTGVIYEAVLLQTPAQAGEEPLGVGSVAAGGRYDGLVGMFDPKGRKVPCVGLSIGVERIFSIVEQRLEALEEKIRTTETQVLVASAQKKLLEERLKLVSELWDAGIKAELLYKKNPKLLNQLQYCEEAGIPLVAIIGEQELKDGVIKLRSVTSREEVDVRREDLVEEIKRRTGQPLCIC

Centromere B = biological target: T7, Centromere B (UniProt P07199 1-599); assay: AtheNA, Ab 50 ug/ml
T7 construct: also called Cent B
T7 sequence: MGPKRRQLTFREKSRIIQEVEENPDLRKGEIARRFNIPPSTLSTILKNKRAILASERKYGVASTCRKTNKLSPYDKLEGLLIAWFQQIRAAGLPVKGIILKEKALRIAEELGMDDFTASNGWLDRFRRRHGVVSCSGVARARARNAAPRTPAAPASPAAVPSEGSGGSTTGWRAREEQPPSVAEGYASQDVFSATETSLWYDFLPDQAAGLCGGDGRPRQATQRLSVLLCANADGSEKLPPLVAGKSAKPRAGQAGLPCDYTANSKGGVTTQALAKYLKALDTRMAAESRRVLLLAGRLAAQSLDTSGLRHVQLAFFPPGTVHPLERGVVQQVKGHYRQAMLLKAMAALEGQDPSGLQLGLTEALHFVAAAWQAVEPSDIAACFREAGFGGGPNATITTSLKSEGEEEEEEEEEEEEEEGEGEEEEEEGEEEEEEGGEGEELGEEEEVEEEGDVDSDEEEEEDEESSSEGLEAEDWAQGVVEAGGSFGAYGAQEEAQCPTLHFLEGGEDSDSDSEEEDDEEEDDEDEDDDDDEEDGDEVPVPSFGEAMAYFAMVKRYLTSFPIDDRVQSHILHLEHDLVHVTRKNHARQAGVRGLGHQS

CH505.TF mutant gp120 M6 = biological target: T8, CH505.TF mutant gp120 M6 (HIV-1); assay: direct-binding ELISA (OD450), panel 'CH505.TF gp120 M6'
T8 construct: domain: gp120

Histones [6] = biological target: T1, Histones; assay: AtheNA, Ab 6.25 ug/ml
Excerpt: (§1) AtheNA Multi-Lyte ANA Plus Test System is one such assay. This is luminex-based assay, which is also used to screen patient sera.

SSB [7] = biological target: T2, SSB; assay: AtheNA, Ab 6.25 ug/ml
Excerpt: as §1

RNP (ribonucleoprotein) [8] = biological target: T3, RNP (ribonucleoprotein); assay: AtheNA, Ab 6.25 ug/ml
Excerpt: as §1

Scl-70 [9] = biological target: T4, Scl-70; assay: AtheNA, Ab 6.25 ug/ml
Excerpt: as §1

SSA [10] = biological target: T5, SSA; assay: AtheNA, Ab 6.25 ug/ml
Excerpt: as §1

Sm (Smith antigen) = biological target: T9, Sm (Smith antigen); assay: AtheNA, Ab 6.25 ug/ml
T9 construct: Protein complex
Excerpt: as §1

B1: CH557 (antibody, V domains shown)
VH: QVRLAQYGGGVKRLGATMTLSCVASGYTFNDYYIHWVRQAPGQGFELLGYIDPANGRPDYAGALRERLSFYRDKSMETLYMDLRSLRYDDTAMYYCVRNVGTAGSLLHYDHWGSGSPVIVSS
VL: EIVLTQSPATLSASPGERVTLTCRASRSVRNNVAWYQHKGGQSPRLLIYDASTRAAGVPARFSGSASGTEFTLAISNLESEDFTVYFCLQYNNWWTFGQGTRVDIK
notes: also called CH235.12; CH557_4A/293i
B1 was tested, and the AtheNA signal (Histones [1]) was 16 relative luminescence units, the AtheNA signal (SSB [2]) was 15 relative luminescence units and the AtheNA signal (RNP (ribonucleoprotein) [3]) was 10 relative luminescence units. For the same binder, the AtheNA signal (Scl-70 [4]) was 6 relative luminescence units, the AtheNA signal (SSA [5]) was 6 relative luminescence units and the AtheNA signal (Jo-1) was 10 relative luminescence units. For the same binder, the AtheNA signal (Centromere B) was 46 relative luminescence units.

B2: CH493 (antibody, V domains shown)
VH: QVRLLQYGGGVKRPGASMTISCVASGYNFNDYYIHWVRQAPGQGLELMGWIDPSGGRTDYAGAFGDRVSMYRDKSMNTLYMDLRSLRSGDTAMYYCVRNVGTAGSLLHYDHWGLGVMVTVSS
VL: EIVLTQSPATLSVSPGERVTLSCRASQSVRNNLAWYRQKRGQAPRLLIYGASTRATGIPARFSGSGSGTEFTLTISSMQSEDFAVYYCQQYNNWWTFGQGTKVEIK
notes: also called CH235.9; DH493
For B2, the “EC50 (read off the curve)” value (CH505.TF mutant gp120 M6) was roughly 0.5 µg/mL, the AtheNA signal (Histones [6]) was 174 and the AtheNA signal (SSB [7]) was 15. The AtheNA signal (RNP (ribonucleoprotein) [8]) was 32, the AtheNA signal (Scl-70 [9]) was 17 and the AtheNA signal (SSA [10]) was 22. It also gave an AtheNA signal (Sm (Smith antigen)) of 46.
